Test system: phiC31 integrase (Streptomyces phage phiC31?)
Test: cell_activity
Settings: in E. coli, 1% L-arabinose, 32 C, 60-120 min; intramolecular attB x attP recombination giving minicircle

**Q.** How did the activity (% recombination) turn out when “phiC31 attB x attP sites flanking expression cassette (pBAD.phiC31.RHB)” was run?
**A.** The activity (% recombination) was greater than 97.

From US20180010135
